# Assay results reported in patent US20070042930A1, “Effect of beta-glucan on stem cell recruitment and tissue repair” (priority 2002, published 2007).
# B1: G-CSF: used for G-CSF-mediated stem cell mobilization (bone marrow transplantation) (protein, UniProt P09919 31-207, looked up)
# Granulocyte …: TPLGPASSLPQSFLLKCLEQVRKIQGDGAALQEKLVSECATYKLCHPEELVLLGHSLGIPWAPLSSCPSQALQLAGCLSQLHSGLFLYQGLLQALEGISPELGPTLDTLQLDVADFATTIWQQMEELGMAPALQPTQGAMPAFASAFQRRAGGVLVASHLQSFLEVSYRVLRHLAQP
# Tested on: complement
# Test: G-CSF mobilization: complement activation in bone marrow
# Type: in vivo, mice
molecule,measurement,setting,value
B1,complement activation in bone marrow,"G-CSF mobilization, FIG. 8A and 8B",stimulates complement activation in bone marrow with iC3b deposition on stromal cells
same,complement activation in bone marrow,"immunoglobulin-deficient SCID mice, FIG. 9A through 9F",does not activate complement
